Each block holds one molecule with its values, some of them ahead of it.
Assays:
Assay in all cases: SPR
cat Fcμ–J complex (cat) = molecular target: cat Fcμ–J complex (cat)
[1] = molecular target: D1 domain of FcμR (FcμR-D1) (human) (UniProt O60667)
[2] = molecular target: human Fcμ–J–CD5L complex (human) (UniProt P01871)
[3] = molecular target: human Fcμ–J complex (pentameric IgM core: IgM-Fc pentamer and the J chain) (human) (UniProt P01871)

Kd (cat Fcμ–J complex (cat)): 14.4 nM
Molecule: cat CD5L (3-SRCR isoform) (from UniProt A0A1E1GEY0 20-355) (natural protein)

Kd [1]: 0.4 nM
Molecule: human Fcμ–J–CD5L complex (from UniProt P01871 106-433; P01591 23-159; O43866 20-347)

Kd [2]: 8.8 nM
B1: D1 domain of FcμR (FcμR-D1) (domain or fragment)
chain: RILPEVKVEGELGGSVTIKCPLPEMHVRIYLCREMAGSGTCGTVVSTTNFIKAEYKGRVTLKQYPRKNLFLVEVTQLTESDSGVYACGAGMNTDRGKTQKVTLNVHS

Kd [3]: 18.1 nM
B2: human CD5L (CD5 antigen-like), wild type (natural protein)
chain: SPSGVRLVGGLHRCEGRVEVEQKGQWGTVCDDGWDIKDVAVLCRELGCGAASGTPSGILYEPPAEKEQKVLIQSVSCTGTEDTLAQCEQEEVYDCSHDEDAGASCENPESSFSPVPEGVRLADGPGHCKGRVEVKHQNQWYTVCQTGWSLRAAKVVCRQLGCGRAVLTQKRCNKHAYGRKPIWLSQMSCSGREATLQDCPSGPWGKNTCNHDEDTWVECEDPFDLRLVGGDNLCSGRLEVLHKGVWGSVCDDNWGEKEDQVVCKQLGCGKSLSPSFRDRKCYGPGVGRIWLDNVRCSGEEQSLEQCQHRFWGFHDCTHQEDVAVICSG

Kd [3]: 13.2 nM
B3: human CD5L C191S (natural protein)
chain: SPSGVRLVGGLHRCEGRVEVEQKGQWGTVCDDGWDIKDVAVLCRELGCGAASGTPSGILYEPPAEKEQKVLIQSVSCTGTEDTLAQCEQEEVYDCSHDEDAGASCENPESSFSPVPEGVRLADGPGHCKGRVEVKHQNQWYTVCQTGWSLRAAKVVCRQLGCGRAVLTQKRSNKHAYGRKPIWLSQMSCSGREATLQDCPSGPWGKNTCNHDEDTWVECEDPFDLRLVGGDNLCSGRLEVLHKGVWGSVCDDNWGEKEDQVVCKQLGCGKSLSPSFRDRKCYGPGVGRIWLDNVRCSGEEQSLEQCQHRFWGFHDCTHQEDVAVICSG
